PMC2910095 (Biochemistry, 2010)
“And” between values parts separate entries of the source, which are not always exact repeats. Equal entries are not always repeated.

Legend:
[1] = target: p33/p55 complex (86 kDa, monomeric complex) (Helicobacter pylori strain 60190); experiment: negative-stain electron microscopy
[2] = target: recombinant refolded VacA p33 domain (Helicobacter pylori strain 60190); experiment: SEC
[3] = target: purified recombinant VacA p55 domain (Helicobacter pylori strain 60190); experiment: SEC
[4] = target: the molecule itself; experiment: negative-stain electron microscopy

Molecule: p33/p55 complex (86 kDa, monomeric complex)
- stoichiometry N [1]: 6 and 7 and 12

Molecule: recombinant refolded VacA p33 domain (domain or fragment)
- stoichiometry N [2]: 3
- stoichiometry N [3]: 1

B1: p88 VacA purified from H. pylori broth culture supernatant (natural protein)
chain: AFFTTVIIPAIVGGIATGTAVGTVSGLLGWGLKQAEEANKTPDKPDKVWRIQAGKGFNEFPNKEYDLYKSLLSSKIDGGWDWGNAATHYWIKGGQWNKLEVDMKDAVGTYKLSGLRNFTGGDLDVNMQKATLRLGQFNGNSFTSYKDSADRTTRVDFNAKNILIDNFLEINNRVGSGAGRKASSTVLTLQASEGITSSKNAEISLYDGATLNLASNSVKLNGNVWMGRLQYVGAYLAPSYSTINTSKVTGEVNFNHLTVGDHNAAQAGIIASNKTHIGTLDLWQSAGLNIIAPPEGGYKDKPNNTPSQSGAKNDKQESSQNNSNTQVINPPNSTQKTEVQPTQVIDGPFAGGKDTVVNIDRINTKADGTIKVGGFKASLTTNAAHLNIGKGGVNLSNQASGRTLLVENLTGNITVDGPLRVNNQVGGYALAGSSANFEFKAGVDTKNGTATFNNDISLGRFVNLKVDAHTANFKGIDTGNGGFNTLDFSGVTNKVNINKLITASTNVAVKNFNINELIVKTNGVSVGEYTHFSEDIGSQSRINTVRLETGTRSIFSGGVKFKSGEKLVIDEFYYSPWNYFDARNIKNVEITRKFASSTPENPWGTSKLMFNNLTLGQNAVMDYSQFSNLTIQGDFINNQGTINYLVRGGKVATLNVGNAAAMMFNNDIDSATGFYKPLIKINSAQDLIKNTEHVLLKAKIIGYGNVSTGTNGISNVNLEEQFKERLALYNNNNRMDTCVVRNTDDIKACGMAIGNQSMVNNPDNYKYLIGKAWKNIGISKTANGSKISVYYLGNSTPTENGGNTTNLPTNTTNNARFASYA
- stoichiometry N [4]: 6 and 7 and 12 to 14 (2×)
